In assay [1] the target is recombinant mature human PAI-1 (24-402) stabilized in active conformation (N150H, K154T, Q319L, M354I) (human) (UniProt P05121). The assay is described as follows: crystal structure, light chain, average of 4 complexes.
Assay [2] concerns the target cynomolgus PAI-1 (cynomolgus (Macaca fascicularis)). The assay can be described thus: crystal structure, heavy chain, average of 2 complexes.
The target is the same in assay [3]. The assay is described as follows: crystal structure, light chain, average of 2 complexes.
Assay [4] has as its target recombinant mature human PAI-1 (24-402) stabilized in active conformation (N150H, K154T, Q319L, M354I) (human) (UniProt P05121). The assay is described as follows: crystal structure, heavy chain, average of 4 complexes.

B1: Fab A44V11 (Fab, V domains shown)
VH: QMTLKESGPTLVKPTQTLSLTCSVSGDSMTNGYWNWIRQFPGKALEYMGYITYSGSTYYNPSLKGRITITRDTSKNQYYLTLSSVTTVDTATYYCARWHYGSPYYFDYWGQGTTLTVSS
VL: DIKMTQSPSSLSASVGDRVTITCKASQDINSYLSWLQQKPGKSPKTLIYRAQRSVEGVPSRFSGSGSGQDYSLTISSLQPEDLGIYYCLQYDEFPPTFGGGTKLEIK
As to B1, the surface area of the interaction in assay [1] turned out to be 372 Å^2; in assay [2] it was 703 Å^2; in assay [3] it was 360 Å^2; in assay [4], 674 Å^2.

Values taken from patent EP3620472A1.
